Measurements reported in patent US8822645B2, “Prostaglandin E2 dual variable domain immunoglobulins and uses thereof” (AbbVie Inc., priority 2008, dated 2014).
Read-outs that look alike come from different tables or passages of the source.

Experiments:
[1] = system: PGE2 / human EP4 receptor in HEK293 Gα16 cells; test: EP4 bioassay (Ca++ flux, neutralization of PGE2); assay type: cell-based; settings: EP4 bioassay, Ca++ flux
Procedure: The ability of anti-PGE2 antibodies and anti-PGE2 containing DVD-Ig molecules to inhibit the cellular response of PGE2 was determined in a Ca++ flux assay in HEK293 Gα16 cells stably transfected with human EP4 receptor. Cells were plated in black/clear poly-D-lysine plates, (Corning #3667, Corning, N.Y.) and incubated with Ca++-sensitive dye (Molecular Devices) for 90 minutes. Stock PGE2 (in 200 proof ethanol) was diluted with FLIPR buffer (containing 1×HBSS (Invitrogen, Carlsbad, Calif.), 20 mM HEPES (Invitrogen, Carlsbad, Calif.), 0.1% BSA (Sigma, St. Louis, Mo.) and 2.5 mM Probenecid (Sigma, St. Louis, Mo.)). Anti-PGE2 antibodies, DVD-Ig molecules or isotype matched control antibodies were also pre-diluted in FLIPR buffer. 25 μl of PGE2 or pre-incubated PGE2/antibody mixture or pre-incubated PGE2/DVD-Ig molecule mixture was added to the wells pre-plated with cells. A dose response of PGE2 was done by a serial titration of PGE2 and was determined using FLIPR1 or Tetra (Molecular Devices). EC50 was determined using GraphPad Prism 5 (GraftPad Software, La Jolla, Calif.). […] Ca++ flux was monitored using FLIPR1 and data was analyzed using GraphPad Prism 5.
The ability of anti-PGE2 antibodies and anti-PGE2 containing DVD-Ig molecules to inhibit the cellular response of PGE2 was determined in a Ca++ flux assay using stably transfected human EP4 in HEK293 Gα16 cells. Cells were plated in black/clear Poly-D-Lysine plates, (Corning #3667) and incubated with Ca++-sensitive dye (Molecular Devices) for 90 minutes. Stock PGE2 (in 200 proof ethanol) was diluted with FLIPR buffer (containing 1×HBSS, 20 mM HEPES, 0.1% BSA and 2.5 mM Probenecid). Anti-PGE2 antibodies, DVD-Ig molecules or isotype matched control antibodies were also pre-diluted in FLIPR buffer. 25 μl of PGE2 or pre-incubated PGE2/antibody mixture or pre-incubated PGE2/DVD-Ig molecule mixture was added to the wells pre-plated with cells. A dose response of PGE2 was done by a serial titration of PGE2 and was determined using FLIPR1 or Tetra (Molecular Devices). EC50 was determined using GraphPad Prism 5. […] Ca++ flux was monitored using FLIPR1 and data was analyzed using GraphPad Prism 5.

[2] = PGE2-biotinamide ELISA (PGE2 binding)
Procedure: (§1) Enzyme linked immunosorbent assays to screen for anti-PGE2 antibodies or anti-PGE2 containing DVD-Ig molecules that bind prostaglandin E2 were performed as follows. ELISA plates (Costar 3369, Corning, N.Y.) were coated with 50 μl of anti-host Fc IgG (Sigma, St. Louis, Mo.) at 2 μg/ml in PBS (Invitrogen Carlsbad, Calif.). Following an overnight incubation at 4° C., the plate was blocked with 200 μl Superblock (Pierce #37535, Rockford, Ill.). The IgG or DVD-Ig containing samples were diluted to 1 μg/ml in Assay Buffer (10% Superblock in PBS containing 0.05% Surfactamps (Pierce #37535, Rockford, Ill.) and incubated on the plate at 50 μl/well for 1 hour at room temperature. Following the incubation, plates were washed four times with TTBS (Tween-Tris Buffered Solution). For PGE2 binding, PGE2-biotinamide (Cayman Chemicals, Ann Arbor, Mich.) was diluted to 30 nM and serially diluted in Assay Buffer. The titration curve was added to each IgG or DVD-Ig sample at a volume of 50 μl/well and incubated for 1 hour at room temperature. The plates were washed as previously described and 50 μl/well of 1:5000 dilution of streptavidin polyhrp40 (Fitzgerald Industries, Concord, Mass.) in Assay Buffer was added and incubated for 45 minutes at room temperature. A final wash step was performed and the plates were developed using a single step TMB system (Sigma #T8665, St. Louis, Mo.) and 2N H2SO4. Plates were read at 450 nm on a Molecular Devices Spectramax plate reader (Sunnyvale, Calif.). EC50 was determined using GraphPad Prism 5 (GraphPad Software, La Jolla, Calif.) (FIG. 2).
as §1, with “ELISA” for “Enzyme linked immunosorbent assays to screen for anti-PGE2 antibodies or anti-PGE2 containing DVD-Ig molecules that bind prostaglandin E2 were performed as follows. ELISA”, “(Invitrogen,” for “(Invitrogen”, “IgG” for “IgG or DVD-Ig”, “Solution).” for “Solution). For PGE2 binding,”, “Calif.).” for “Calif.) (FIG. 2).”

[3] = PGE2 VD in C-terminal position, read-out: C-terminal VD PGE2 Neutralization EC50
[4] = PGE2 VD in C-terminal position, read-out: Direct Bind ELISA C-terminal VD EC50
[5] = PGE2 VD in N-terminal position, read-out: N-terminal VD PGE2 Neutralization EC50
[6] = PGE2 VD in N-terminal position, read-out: Direct Bind ELISA N-terminal VD EC50

Row | Molecule | EC50 [2, 4] | EC50 [2, 6] | EC50 [1, 3] | EC50 [1, 5] | other results
1 | AB048: parent antibody, PGE2, SEQ ID 48/49 (antibody, V domains shown) VH: EVQLVQSGAEVKKPGASVKVSCKASGYTFTKYWLGWVRQAPGQGLEWMGDIYPGYDYTHYNEKFKDRVTLTTDTSTSTAYMELRSLRSDDTAVYYCARSDGSSTYWGQGTLVTVSS VL: DVLMTQTPLSLPVTPGEPASISCTSSQNIVHSNGNTYLEWYLQKPGQSPQLLIYKVSNRFSGVPDRFSGSGSGTDFTLKISRVEAEDVGVYYCFQVSHVPYTFGGGTKVEIKR | – | – | – | – | EC50 ([1]; parent antibody (cell spans both VD columns), read-out: PGE2 Neutralization EC50): 0.017 nM; EC50 ([2]; parent antibody (cell spans both VD columns), read-out: Direct Bind ELISA EC50 (PGE2 binding)): 1.49 nM
2 | DVD158: DVD-Ig construct listed in Table 4 (antibody) VH: QVQLVESGGGVVQPGRSLRLSCAASGFTFSVYGMNWVRQAPGKGLEWVAIIWYDGDNQYYADSVKGRFTISRDNSKNTLYLQMNGLRAEDTAVYYCARDLRTGPFDYWGQGTLVTVSSASTKGPEVQLVQSGAEVKKPGASVKVSCKASGYTFTKYWLGWVRQAPGQGLEWMGDIYPGYDYTHYNEKFKDRVTLTTDTSTSTAYMELRSLRSDDTAVYYCARSDGSSTYWGQGTLVTVSS VL: EIVLTQSPDFQSVTPKEKVTITCRASQSIGSSLHWYQQKPDQSPKLLIKYASQSFSGVPSRFSGSGSGTDFTLTINSLEAEDAAAYYCHQSSSLPFTFGPGTKVDIKRTVAAPDVLMTQTPLSLPVTPGEPASISCTSSQNIVHSNGNTYLEWYLQKPGQSPQLLIYKVSNRFSGVPDRFSGSGSGTDFTLKISRVEAEDVGVYYCFQVSHVPYTFGGGTKVEIKR | 1.14 nM | – | 0.21 nM | – | –
3 | DVD157: DVD-Ig construct listed in Table 4 (antibody) VH: EVQLVQSGAEVKKPGASVKVSCKASGYTFTKYWLGWVRQAPGQGLEWMGDIYPGYDYTHYNEKFKDRVTLTTDTSTSTAYMELRSLRSDDTAVYYCARSDGSSTYWGQGTLVTVSSASTKGPQVQLVESGGGVVQPGRSLRLSCAASGFTFSVYGMNWVRQAPGKGLEWVAIIWYDGDNQYYADSVKGRFTISRDNSKNTLYLQMNGLRAEDTAVYYCARDLRTGPFDYWGQGTLVTVSS VL: DVLMTQTPLSLPVTPGEPASISCTSSQNIVHSNGNTYLEWYLQKPGQSPQLLIYKVSNRFSGVPDRFSGSGSGTDFTLKISRVEAEDVGVYYCFQVSHVPYTFGGGTKVEIKRTVAAPEIVLTQSPDFQSVTPKEKVTITCRASQSIGSSLHWYQQKPDQSPKLLIKYASQSFSGVPSRFSGSGSGTDFTLTINSLEAEDAAAYYCHQSSSLPFTFGPGTKVDIKR | – | 1.23 nM | – | 0.217 nM | –
4 | DVD161: DVD-Ig construct listed in Table 4 (antibody) VH: EVQLVQSGAEVKKPGASVKVSCKASGYTFTKYWLGWVRQAPGQGLEWMGDIYPGYDYTHYNEKFKDRVTLTTDTSTSTAYMELRSLRSDDTAVYYCARSDGSSTYWGQGTLVTVSSASTKGPEVQLVESGGGLVQPGGSLRLSCAASGYTFTNYGMNWVRQAPGKGLEWVGWINTYTGEPTYAADFKRRFTFSLDTSKSTAYLQMNSLRAEDTAVYYCAKYPHYYGSSHWYFDVWGQGTLVTVSS VL: DVLMTQTPLSLPVTPGEPASISCTSSQNIVHSNGNTYLEWYLQKPGQSPQLLIYKVSNRFSGVPDRFSGSGSGTDFTLKISRVEAEDVGVYYCFQVSHVPYTFGGGTKVEIKRTVAAPDIQMTQSPSSLSASVGDRVTITCSASQDISNYLNWYQQKPGKAPKVLIYFTSSLHSGVPSRFSGSGSGTDFTLTISSLQPEDFATYYCQQYSTVPWTFGQGTKVEIKR | – | 1.02 nM | – | 0.193 nM | –

Further lines, with some results ahead:

Row | EC50 [2, 4] | EC50 [2, 6] | Molecule | EC50 [1, 3] | EC50 [1, 5] | other results
5 | 1.3 nM | – | DVD164: DVD-Ig construct listed in Table 4 (antibody) VH: QVQLQESGPGLVKPSETLSLTCTVSGFSLIGYDLNWIRQPPGKGLEWIGIIWGDGTTDYNSAVKSRVTISKDTSKNQFSLKLSSVTAADTAVYYCARGGYWYATSYYFDYWGQGTLVTVSSASTKGPEVQLVQSGAEVKKPGASVKVSCKASGYTFTKYWLGWVRQAPGQGLEWMGDIYPGYDYTHYNEKFKDRVTLTTDTSTSTAYMELRSLRSDDTAVYYCARSDGSSTYWGQGTLVTVSS VL: DIQMTQSPSSLSASVGDRVTITCRASQSISNNLNWYQQKPGKAPKLLIYYTSRFHSGVPSRFSGSGSGTDFTFTISSLQPEDIATYYCQQEHTLPYTFGQGTKLEIKRTVAAPDVLMTQTPLSLPVTPGEPASISCTSSQNIVHSNGNTYLEWYLQKPGQSPQLLIYKVSNRFSGVPDRFSGSGSGTDFTLKISRVEAEDVGVYYCFQVSHVPYTFGGGTKVEIKR | 0.079 nM | – | –
6 | 1.32 nM | – | DVD162: DVD-Ig construct listed in Table 4 (antibody) VH: EVQLVESGGGLVQPGGSLRLSCAASGYTFTNYGMNWVRQAPGKGLEWVGWINTYTGEPTYAADFKRRFTFSLDTSKSTAYLQMNSLRAEDTAVYYCAKYPHYYGSSHWYFDVWGQGTLVTVSSASTKGPEVQLVQSGAEVKKPGASVKVSCKASGYTFTKYWLGWVRQAPGQGLEWMGDIYPGYDYTHYNEKFKDRVTLTTDTSTSTAYMELRSLRSDDTAVYYCARSDGSSTYWGQGTLVTVSS VL: DIQMTQSPSSLSASVGDRVTITCSASQDISNYLNWYQQKPGKAPKVLIYFTSSLHSGVPSRFSGSGSGTDFTLTISSLQPEDFATYYCQQYSTVPWTFGQGTKVEIKRTVAAPDVLMTQTPLSLPVTPGEPASISCTSSQNIVHSNGNTYLEWYLQKPGQSPQLLIYKVSNRFSGVPDRFSGSGSGTDFTLKISRVEAEDVGVYYCFQVSHVPYTFGGGTKVEIKR | 0.067 nM | – | –
